{"source": "patent US9096835B2", "about": "“DNA polymerase” (Medical Research Council, priority 2003, dated 2015)", "molecules": {"B1": {"name": "3D1: third round clone, four mismatch extension; SEQ ID NO: 98 (protein)", "chain": "MAMLPLFEPKGRVLLVDGHHLAYRTFFALKGPTTSRGEPVQVVYGFAKSLLKALKEDGYKAVFVVFDAKAPSFRHKAYEAYRAGRAPTPEDFPRQLALIKELVDLLGFTRLEVPGYEADDVLATLAKKAEKEGYEVRILTADRGLYQLVSDRVAVLHPEGHLITPEWLWEKYGLRPEQWVDFRALVGDPSDNLPGVKGIGEKTALKLLKEWGSLENLLKNLDRVKPENVREKIKAHLEDLRLSLELSRVRTDLPLEVDLAQRREPDREGLRAFLERLEFGSLFHEFGLLESPKALEEAPWPPPEGAFVGFVLSRKEPMWADLLALAAARGGRVHRAPEPYKALRDLKEARGLLAKDLSVLALREGLGLPPGDDPMLLAYLLDPSNTTPEGVARRYGGEWTEEAGERAALSERLFANLWGRLEGEERLLWLYREVERPLSAVLAHMEATGVRLDVAYLRALSLEVAEEIARLEAEVFRLAGHPFNLNSRDQLEMVLFDELRLPALGKTQKTGKRSTSAAVLEALREAHPIVEKILQYRELTKLKSTYIDPLSDLIHPRTGRLHTRFNQTATATGRLSSSDPNLQNIPVRTPLGQRIRRAFIAEEGWLLVVLDYSQIELRVLAHLSGDENLIRVFQEGRDIHTETASWMFGVPREAVDPLMRRAAKTINFGVLYGMSAHRLSQELAIPYEEAQAFIERYFQSFPKVRAWIEKTLEEGRRRGYVETLFGRRRYVPDLEARVKSVREAAERMAFNMPVQGTAADLMKLAMVKLFPRLGETGARMLLQVHDELVLEAPKERAEAVARLAKEAMEGVYPLAVPLEVEVGIGEDWLSAKG", "modifications": "Mutant Taq polymerase"}, "B2": {"name": "3A10: third round clone, abasic site bypass; SEQ ID NO: 86 (protein)", "chain": "MAMLPLFEPKGRVLLVDGHHLAYRTFFALKGLTTSRGEPVQVVYGFAKSLLKALKEDGYKAVFVVFDAKAPSFRHKAYEAYRAGRAPTPQDFPRQLALIKELVDLLGFTRLEVPGYEADDVLATLAKKAEKEGYEVRILTADRGLYQLVSDRVAVLHPEGHLITPEWLWEKYGLRPEQWVDFRALVGDPSDNLPGVKGIGEKTALKLLKEWGSLENLLKNLDRVKPENVREKIKAHLEDLRLSLELSRVRTDLPLEVDLAQGREPDREGLRAFLERLEFGSLLHEFGLLESPKALEEAPWPPPEGAFVGFVLSRKEPMWADLLALAAARGGRVHQAPEPYKALRDLKEARGLLAKDLSVLALREGLGLPPGDDPMLLAYLLDPSNTTPEGVARRYGGEWTEEAGERAALSERLFANLWGRLEGEERLLWLYREVERPLSAVLAHMETTGVRLDVAYLRALSLEVAEEIARLEAEVFRLAGRPFNLNSRDQLERVLFDELGLPAIGKTEKTGKRSTSAAVLEALREAHPIVEKILQYRELTKLKSTYIDPLPDLIHPRTGRLHTRFNQTATATGRLSSSDPNLQNIPVRTPLGQRIRRAFIAEEGWLLVVLDYSQMELRVLAHLSGDENLIRVFQEGKDIHTQTASWMFGVPPEAVDPLMRRAAKTVNFGVLYGMSAHRLSQELSIPYEEAVAFIERYFQSFPKVRAWIEKTLEEGRRRGYVETLFGRRRYVPDLNARMKSVRGAAERMAFNMPVQGTAADLMKLAMVKLFPRLREMGARMLLQVHDELLLEAPQARAEEVAALAKEAMEKAYPLAVPLEVEVGIGEDWLSAKE", "modifications": "Mutant Taq polymerase"}}, "key": {"[1]": {"system": "template containing a cis-syn cyclobutane thymine-thymine dimer (CPD)", "assay": "Translesion replication assay (primer extension), CPD", "assay_type": "biochemical", "details": "gel-extension assay, 60° C.", "procedure": "(§1) Template primers 22 (undamaged) or 23 (containing a synthetic abasic site) were synthesized by Lofstrand Laboratories (Gaithersburg, Md.). Template primer 24 (containing a single cis-syn thymine dimer), was synthesized as described (34). Primer 25 was ^32P-labeled and annealed to one of the three templates 22, 23, 24 (at a primer template ratio of molar 1:1.5) and extended in 40 mM Tris.HCl at pH 8.0, 5 mM MgCl2, 100 μM of each dNTP, 10 mM DTT, 250 μg/ml BSA, 2.5% glycerol, 10 nM primer-template DNA and 0.1 Unit of polymerase at 60° C. for various times.\n(§2) Primer extension assays were essentially as described in (Ghadessy et al., 2004). Briefly, undamaged oligonucleotides and a 51mer containing a synthetic abasic site were synthesized by Lofstrand Laboratories (Gaithersburg, Md.) using standard techniques and were gel purified prior to use. A 20mer primer (LES—20 P) with the sequence 5′-[…]-3′ (SEQ ID NO: 99) was 5′-labeled with [^32P]ATP (5000 Ci/mmole; 1 Ci=37 GBq) (Pharmacia) using T4 polynucleotide kinase (Invitrogen, Carlsbad Calif.). Radiolabeled primer-template DNAs were prepared by annealing the 5′[^32P] labeled 20mer primer to one of the two following 51mer templates (at a primer template ratio of molar 1:1.5). 1) undamaged DNA (UNDT51T); 5′-AGCTACCATGCCTGCACGAATTCGGCATCCGTCGCGACCACGGTCGCAGCG-3′ (SEQ ID NO: 100); 2) an oligo (LABA51T) containing a synthetic abasic site (indicated as an X in bold font); 5′-AGCTACCATGCCTGCACGACA XCG GCATCCGTCGCGACCACGGTCGCAGCG-3′ (SEQ ID NO: 101). Standard replication reactions of 10 contained 40 mM Tris.HCl at pH 8.0, 5 mM MgCl2, 100 μM of each ultrapure dNTP (Amersham Pharmacia Biotech, NJ), 10 mM DTT, 250 μg/ml BSA, 2.5% glycerol, 10 nM 5′[32P] primer-template DNA and 0.1 Unit of polymerase. After incubation at 60° C. for various times reactions were terminated by the addition of 10 μl of 95% formamide/10 mM EDTA and the samples heated to 100° C. for 5 min. Reaction mixtures (5 μl) were subjected to 20% polyacrylamide/7 M Urea gel electrophoresis and replication products visualized by PhosphorImager analysis."}, "[2]": {"system": "primer-template duplex, correct or incorrect incoming dNTP", "assay": "Steady-state single nucleotide incorporation kinetics, gel-based assay", "assay_type": "biochemical", "procedure": "Kinetic parameters were determined using a gel-based assay essentially as described (16). Primers 15, 16, 17 (3′ base=G, C, A respectively) were ^32P-labeled and annealed to one of template strands 18, 19, 20 (template base=C, G, A respectively) or 21 (template base C different context). Duplex substrates were used at 50 nM final concentration in 1× Taq buffer with various concentrations of enzyme and dNTP. Reactions were carried out at 60° C. for times whereby <20% of primer-template was utilized at the highest concentration of dNTP.\nExtension and incorporation kinetics of M1 and M4 for a selection of mismatches were measured using a gel-based steady-state kinetic assay (Goodman) (Tables 1 & 2). M1 and M4 respectively extend a C•C mispair 390 and 75-fold more efficiently than wtTaq. […] The gain in extension efficiency derives predominantly from increased relative Vmax values for the mutant polymerases, while Km for nucleotide substrates remains largely unchanged. For most DNA polymerases the relative efficiency of extending a given mispair (f0ext) is similar to the relative efficiency of forming it (finc) (Goodman 1993, Goodman 1990, Washington 2001). Indeed, M1 and M4 respectively incorporate dCTP opposite template base C 206- and 29-fold more efficiently than wtTaq (Table 2)."}, "[3]": {"system": "template containing an abasic site", "assay": "Translesion replication assay (primer extension), abasic site", "assay_type": "biochemical", "details": "gel-extension assay, 60° C.", "procedure": "as §1, §2"}, "[4]": {"biological_target": "matched and mismatched primer-template duplex", "assay": "Template affinity equilibrium binding assay", "details": "not shown", "procedure": "An equilibrium binding assay (12) was used to determine relative affinity of polymerases for the mismatched primer-templates used in the kinetics assays. Polymerases were preincubated at 60° C. in 1× Taq buffer with 50 nM ^32P-labeled matched primer-template and 50 nM unlabeled mismatched competitor primer-templates. Reactions were initiated by simultaneous addition of dCTP (200 μM) and trap DNA (XbaI/SalI-restricted sheared salmon sperm DNA, 4.5 mg/ml)."}, "undamaged template": {"system": "undamaged template", "assay": "Translesion replication assay, control", "assay_type": "biochemical", "details": "gel-extension assay, 60° C.", "procedure": "as §1"}}, "note": "“Also recorded” adds a separate entry of the source."}
{"molecule": "wtTaq: Thermus aquaticus (Taq) wild type DNA polymerase [reference compound]", "values": [{"measurement": "CPD bypass in primer extension", "setting": "[1]", "result": "only able to insert a base opposite the 3′T of the dimer after prolonged reaction conditions"}, {"measurement": "Km", "setting": "[2]; base pair C: dCTP", "result": 1330, "unit": "µM"}, {"measurement": "Ratio of finc, finc (mutant polymerase)/finc (wtTaq)", "setting": "[2]; base pair C: dCTP", "result": 1}, {"measurement": "finc, f (incorrect dNTP)/f (correct dNTP)", "setting": "[2]; base pair C: dCTP", "result": "3.86 × 10^−8"}, {"measurement": "Vmax", "setting": "[2]; base pair C: dCTP (template base: incoming nucleotide)", "result": 3.3, "unit": "% Min^−1"}, {"measurement": "Vmax", "setting": "[2]; base pair C: dGTP (template base: incoming nucleotide), correct dNTP", "result": 2356.02, "unit": "% Min^−1"}, {"measurement": "Km", "setting": "[2]; base pair C: dGTP, correct dNTP", "result": 0.0366, "unit": "µM"}, {"measurement": "Km", "setting": "[2]; base pair G: dATP", "result": 259, "unit": "µM"}, {"measurement": "Ratio of finc, finc (mutant polymerase)/finc (wtTaq)", "setting": "[2]; base pair G: dATP", "result": 1}, {"measurement": "finc, f (incorrect dNTP)/f (correct dNTP)", "setting": "[2]; base pair G: dATP", "result": "8.27 × 10^−5"}, {"measurement": "Vmax", "setting": "[2]; base pair G: dATP (template base: incoming nucleotide)", "result": 1973.68, "unit": "% Min^−1"}, {"measurement": "Vmax", "setting": "[2]; base pair G: dCTP (template base: incoming nucleotide), correct dNTP", "result": 1477, "unit": "% Min^−1"}, {"measurement": "Km", "setting": "[2]; base pair G: dCTP, correct dNTP", "result": 0.016, "unit": "µM"}, {"measurement": "Km", "setting": "[2]; base pair G: dGTP", "result": 365, "unit": "µM"}, {"measurement": "Ratio of finc, finc (mutant polymerase)/finc (wtTaq)", "setting": "[2]; base pair G: dGTP", "result": 1}, {"measurement": "finc, f (incorrect dNTP)/f (correct dNTP)", "setting": "[2]; base pair G: dGTP", "result": "1.7 × 10^−6"}, {"measurement": "Vmax", "setting": "[2]; base pair G: dGTP (template base: incoming nucleotide)", "result": 57.47, "unit": "% Min^−1"}, {"measurement": "Km", "setting": "[2]; base pair G: dTTP", "result": 1.64, "unit": "µM"}, {"measurement": "Ratio of finc, finc (mutant polymerase)/finc (wtTaq)", "setting": "[2]; base pair G: dTTP", "result": 1}, {"measurement": "finc, f (incorrect dNTP)/f (correct dNTP)", "setting": "[2]; base pair G: dTTP", "result": "1.65 × 10^−4"}, {"measurement": "Vmax", "setting": "[2]; base pair G: dTTP (template base: incoming nucleotide)", "result": 25.08, "unit": "% Min^−1"}, {"measurement": "abasic site bypass in primer extension", "setting": "[3]", "result": "further extension is largely abolished; also recorded: further extension was negligible"}, {"measurement": "dissociation constants for matched and mismatched primer-template duplex", "setting": "[4]", "result": "indistinguishable"}, {"measurement": "primer extension on undamaged template", "setting": "undamaged template", "result": "efficiently and rapidly extended primers to the end of the template"}]}
{"molecule": "B1", "values": [{"measurement": "abasic site bypass in primer extension", "setting": "[3]", "result": "clearly display better abasic site bypass than either wtTaq or M1"}]}
{"molecule": "B2", "values": [{"measurement": "CPD bypass in primer extension", "setting": "[1]; listed as A10", "result": "clearly better at both abasic site and CPD extension and bypass than both wild type and M1; also recorded: superior elongation and bypass when compared to wild type"}, {"measurement": "abasic site bypass in primer extension", "setting": "[3]; listed as A10", "result": "clearly better at both abasic site and CPD extension and bypass than both wild type and M1; also recorded: clearly display better abasic site bypass than either wtTaq or M1"}]}
